Columns and labels:
[1] = biological target: PfMCMN-WT (residues 1–256), amino-terminal domain of Pyrococcus furiosus MCM (Pyrococcus furiosus) (UniProt Q8U3I4); assay: AUC; sedimentation velocity at the highest PfMCMN-WT concentration (350 μM), co-interpreted with sedimentation equilibrium; 20°C, 20 mM HEPES pH 7.6, 200 mM NaCl, 5 mM β-mercaptoethanol
[2] = biological target: PfMCMN-WT (residues 1–256), amino-terminal domain of Pyrococcus furiosus MCM (Pyrococcus furiosus) (UniProt Q8U3I4); assay: AUC; sedimentation velocity, 20°C, 50 000 rpm, 20 mM HEPES pH 7.6, 200 mM NaCl, 5 mM β-mercaptoethanol, interference and absorbance optics, c(s) distributions; isotherm of signal-average s-values fitted to monomer-hexamer self-association; some WT samples with 40-mer oligo-dT ssDNA (T40)
[3] = biological target: PfMCMN-WT (residues 1–256), amino-terminal domain of Pyrococcus furiosus MCM (Pyrococcus furiosus) (UniProt Q8U3I4); assay: AUC; sedimentation equilibrium of apoproteins, 12-51 μM, 20°C, 20 mM HEPES pH 7.6, 200 mM NaCl, 5 mM β-mercaptoethanol, absorbance 280 nm; reversible monomer-hexamer (WT, hexamer to monomers) or monomer-pentamer (βT, pentamer to monomers) model; the constant is the protein concentration where half of the protein is monomeric
[4] = biological target: the molecule itself; assay: AUC; sedimentation velocity, 20°C, 50 000 rpm, 20 mM HEPES pH 7.6, 200 mM NaCl, 5 mM β-mercaptoethanol, interference and absorbance optics, c(s) distributions; isotherm of signal-average s-values fitted to monomer-hexamer self-association; some WT samples with 40-mer oligo-dT ssDNA (T40)
[5] = biological target: the molecule itself; assay: SEC; final size-exclusion chromatography step of purification; elution volume compared with PfMCMN-WT
[6] = biological target: the molecule itself; assay: AUC; sedimentation equilibrium of apoproteins, 12-51 μM, 20°C, 20 mM HEPES pH 7.6, 200 mM NaCl, 5 mM β-mercaptoethanol, absorbance 280 nm; reversible monomer-hexamer (WT, hexamer to monomers) or monomer-pentamer (βT, pentamer to monomers) model; the constant is the protein concentration where half of the protein is monomeric

Molecule | stoichiometry N [1] | Kd [2] [µM] | percent hexamer at 15 μM with T40 ssDNA [2] [%] | percent hexamer at 38 μM with T40 ssDNA [2] [%] | percent hexamer at 45 μM with T40 ssDNA [2] [%] | percent hexamer at 128 μM with T40 ssDNA [2] [%] | percent of protein in the hexameric fraction at 76 μM [2] [%] | percent of protein in the hexameric fraction at 180 μM [2] [%] | stoichiometry N [2] | Kd [3] [µM] | stoichiometry N [4] | stoichiometry N [5] | Kd [6] [µM]
PfMCMN-WT (residues 1–256), amino-terminal domain of Pyrococcus furiosus MCM (from UniProt Q8U3I4 1-256) (domain or fragment) | 12 | 58 | 55 | 72 | 72 | 82 | 37 | 60 | 6 | 60 | – | – | –
PfMCMN-βT (1–256; K233A; R234A; K236A) (domain or fragment, Pyrococcus furiosus, UniProt Q8U3I4 1-256, looked up, Minichromosome Maintenance (MCM) protein of Pyrococcus furiosus, N-terminal domain, residues 1-256, with three alanine mutations of the β-turn; Made by site-directed mutagenesis of the PfMCMN-WT SUMO-fusion construct; SUMO removed by Ulp1; also called β-turn triple mutant; pCF076.1) MDREEMIERFANFLREYTDEDGNPVYRGKITDLLTITPKRSVAIDWMHLNSFDSELAHEVIENPEEGISAAEDAIQIVLREDFQREDVGKIHARFYNLPETLMVKDIGAEHINKLIQVEGIVTRVGEIKPFVSVAVFVCKDCGHEMIVPQKPYESLEKVKKCEQCGSKNIELDVNKSSFVNFQSFRIQDRPETLKGGEMPRFIDGILLDDIVDVALPGDRVIVTGILRVVLEAAEATPIFRKILEVNHIEPVSKEI | – | – | – | – | – | – | – | – | – | – | 5 | ~3 | 8

From PMC4627082, “MCM ring hexamerization is a prerequisite for DNA-binding” (Nucleic Acids Research, 2015)
